From a protein production outcome set (Wang et al. 2014)

Test: label from the status in PepcDB records
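Further: failed if final PepcDB status was selected cloned or expressed and not failed if soluble or beyond.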

Sequence | protein production
MNSTLKSSVYILLIISVILVLNGYSYADSYVGGKPLDTLQNGTVTGDVNVDSYYGFTDPEGVGNNTGGNANITYTFNYTIPSNAQIKNATLYVLVYSGHMQEARQTYVNVTYNGNSLENQTLYTTYIYPPEGNNNTWLLGEGHDNDPYLMINNHTMRVTSDYLLWYDVTNMTKKDMNNTANVCTIGSYDGRIKLITLIVAYNIPGSTTATRYWINWGHDVSSYNDEDYTGETYFNGAVPNPANASVMIVHAASSDGIYTYNDQNLPNGTYQRRGSYSGYEIWNVTNIYNNGTNKFTYHKSPGTGLGGYYKIILAVQKVTYTPNIDLTLQTVTFNGGAAFVLENNTMRCQIKNNGSGASPATILALYANDELVATSIIPPINPSGTVYVNITDPTIRSATTETLYSNNNQNVTYRFVIDPYNEVPETNEANNEKTRTVPVLYNGYKG | failed
QLREIVEKVSRVDDVHLALDILVKETCAALRTECCTIYLANEEMQRLELMATQGLIFEGDSIHINFNEGLVGLVKRSAEPLNLAEASKHPEFKFFPQLGEQVYHSFLATPIIHRKQVLGVLVIQQKTPRLFSEMEESFLVTLSAQLAVIIAHAQSLGHWQ | failed
MWNLTRRQWRQILVTVILALAVLLFFLWPLPKYIEGPGEADNLKSFVTVDKHPDKHKGKYMITSVALAQARPVSYLYAKFNPYYSIESVASVTGGESNATYDKVQNFYMKSAINESIYTAYRAAHKTVKRHYLGIYVLSVDRQSPFAQALKVGDTVTEVNGHHFNSMTGYQRYIQRQKVGQRATITYQRNGKTHHVTAKLMRLPTKKAGIGITLTDNVKVSARPKVQVNPGNIGGPSGGLMFSLQIYTQVTGQDLRHGRKIAGTGTVDGDGNVGEIGGIDKKIIAAKRAGATVFFAPYVKPTKLLLKYEEQHQTNYQLAKATAKKYAPNMKVVPVKSFDDAVHYLRTHR | failed
MELLLGIVIVVTCWMVVRIIRSSKNQEGYKRWRAGNYASENPYAKEKASGPLSQGLFSKRVRTTGVRRFDDGAIRWCANLLATEESRLREVLDYIPRQYTCFHVRKRSGGFRYISAPAGDFRSMQQTIYHRILLLANIHPAVTGFCPGKSVSDNARVHLGRKNVLKVDLHDFFPSIRSPRVRAAFREMGYSRPIAKVLAELCCLRCCLPQGAPTSPALSNIIAYPMDKKMMALAGEYGLVYTRYADDLTFSGDYLPKDEVLVRIHRIIREEGFTMNVKKTRFLSEHKRKIITGVSVSSGKKMTLPKVKKREIRKNVHYVLTKGLVGHQEHIGSTDPVYLKRLLGSLCYWRSIEPDNRYVSDSITALKRLM | failed
ADIVNLQGVTGGNTYSVPAVTMDLLSGKDVAVEEFPRKLLTFKEKLGEGQFGEVHLCEVEGMEKFKDKDFALDVSANQPVLVAVKMLRADANKNARNDFLKEIKIMSRLKDPNIIHLLAVCITDDPLCMITEYMENGDLNQFLSRHEPPNSSSSDVRTVSYTNLKFMATQIASGMKYLSSLNFVHRDLATRNCLVGKNYTIKIADFGMSRNLYSGDYYRIQGRAVLPIRWMSWESILLGKFTTASDVWAFGVTLWETFTFCQEQPYSQLSDEQVIENTGEFFRDQGRQTYLPQPAICPDSVYKLMLSCWRRDTKNRPSFQEIHLLLLQQGDE | failed
PSMPASPVLTKAGITWLSLQWSKPSGTPSDEGISYILEMEEETSGYGFKPKYDGEDLAYTVKNLRRSTKYKFKVIAYNSEGKSNPSEVVEFTTCPD | not failed
MEQHHVRSLLKPSAYPDPTGSVELVQTHVSYIFLTDNFAYKVKKPVDFGFLNFSTPDRRRFYCEEEVRLNRRLCPDIYLGVAEVRDTPAGAAFVGEGQVIDHAVKMKRLPADRMLDRLLSAGLAGEPEIRAVARVVGTFHLEAEHSSEIDAFGDLATINANWVENFQQTRPYCGITLSAGDHDFIRGWVERFMAERVDLFAARVGDGRIRDGNGDIHMENICLGADGRVCIFDCIEFNNRFRYGDTAADIAFLLMDFDFVLRPDLGAAFLDEYTRITNDASVVEMIDFYKVYRAFVRGKVESMRLSDPQIPENEKQAAAARASRYFRLARGYAVRQGLPPTLFITCGLTGTGKSRLSRELSLDLGLEIASSDVVRKELAGLRSTERPDQDYGAGIYTDRFSLLTYGELERRARVALEGGRSIVVDATFRRRADRERFGALARDAGATFVILHAVCPEPTIRSRLNSRQKDRSEPSDGTWEVYLRQKDEFDPPSDQEGNLLCIDTSDTASAMVDKVLHGLELLPCGKS | failed
MSAVTESVLESIISPVTMSEFLEEYWPVKPLVARGEVERFTSIPGFEKVRTLENVLAIYNNPVMVVGDAVIEESEGITDRFLVSPAEALEWYEKGAALEFDFTDLFIPQVRRWIEKLKAELRLPAGTSSKAIVYAAKNGGGFKAHFDAYTNLIFQIQGEKTWKLAKNENVSNPMQHYDLSEAPYYPDDLQSYWKGDPPKEDLPDAEIVNLTPGTMLYLPRGLWHSTKSDQATLALNITFGQPAWLDLMLAALRKKLISDNRFRELAVNHQSLHESSKSELNGYLESLIQTLSENAETLTPEQIFQSQDSDFDPYQSTQLVFRQLLTSYKF | not failed
MPRPDNVPVYTMRQLAAFVAVAETGTISGAAERMHLSQSALSAAVTDLEKALKAQLCVRRRARGVQLTPTGEAVLSRARALLQQAGELQSDASGEGGV | failed
MTPFENLSELPAQNTRFNGRAGMGTWLVNRLLNNIERGRLRVTLPGGGTIEKSGHQEGSEAILMLHNWRAIRRVLVNGDIGFAEGFIENDWSTPDLTALIRFAAQNQDAFARSTRGSLPMRLINRMAHALNANTRRGSRRNIEAHYDLGNEFYRQWLDPSMLYSSAIFDDTTPTLEAAQRKKLERIAEKLQLTGNNSVLEIGCGWGALAIHLATQQNADVTGITLSPSQLRWAENAAEKESKAGRIDLRLQDYRDVQGQFDNIVSVEMFEAVGESYWPSYFEMLKRCLKPGGRAVLQIISIDESRFDTYRRKADFIQKYVFPGGFLPSDSALEKSVGQAGLKLTETELFGQSYALTLAEWRQRFHARWQTISLLGFDERFRRLWDYYLCYCEAGFAEGTINVGLYTIEHG | failed
MSRCASRFRISSKLSATFRTTHKSHQARNPAGFFVIMGYHKDATKRMIMVYTKVYPMRFGYIALGTPPIQSLDIRKMPKLTDMQIRAWIKSGERFEGRADGNGLYLRYREADKTPTWRFRYKLAGKSRAMLIGSYSELSLSKARETAKELSARVALGYDVAGEKQKRKTEALAKMEAEKNAMRVSELAAEYFERQILPRWKHPDILRRRIDKDINPCIGSMKVEDVKPRHIDDMLKGIVDRGAPTIATDVLRWTRRIFDYGIKRHALEINPCSAFEVADAGGKEAARDRWLTRDELIQLFKAMRTAKGFSRQNEITFKLLLALCVRKMELCAARWEEFDLDGAVWHLPEERSKNGDPIDIPLPSPAVEWLRELHTFSCNSAWVLPARKMQNRMIPHIQESTLPVALAKVRAEMPDVPNFTIHDFRRTARTHLAALGVDPVVAERCLNHRIKGVEGIYNRHQYFDERKAALAQWADLLVALESGKDYNVTPLRRAN | failed
DYSQKLQNLISEQLVGCGFNEILNNSLTAASYYEGSETYKNENLVYLMNPLSNDLNVMRQTLLFGGLESIQHNANRKNADLKFFEFGNCYFYNAEKKNPEKVLAAYAEEYHLGLWVTGKRVSNSWAHPDENSSVYELKAYVLNIFTRLGLNFGNVVFGNLTNDIYSTAISVHTRGGKLLATFGIISKKIQKAFDIDNEVYYAEINWKELM | not failed
MQPIELAELLTSQAAVLTSLVVIGLILCFIGYKIFRVYSAVIGLFIGQLVGIYITINYYENALIVILASAIVGALLFALIDELGLIVTGAAFGYFVGVYLLPEYQVYAFVLAALFALINLFIEKPLTVLITSVIGASAIALAVHMGITGTHIYDILNDPKKVFDAIFSNAYFDLLWFTLVLTGIITQYVTYKEEREEEE | failed
HFLLPFAEIPEQFPASKAVLMEHFYRRMRKRFGYLMTADGKPEGGQWNFDADNRNKLKSPDLLQLPTPLCFDNPVASIKARIERHRIPSIGQVGESLLWPINRAQALSLLAHFCQICLPNFGRFQDAMTAQHPHRWSLYHSRLSFALNSKLLSPREVIEATISAYRAAQGQISLAQVEGFVRQILGWREYVRGMYWSN | failed
MVDISLIIGGPQGGGIESAGQIAIKSMVLLGYEVLGSREYHSNIMGAHSYYHLRVQQHRPRSLKLPVDGVLALDAESVFTHFRDVRPGGILVYDPGTKSTRVDAIQPMAGPLKKRLKSLFDSRGMQPVVESAVKLAEEAGARIVGLPLKEMLKTLSERTGAPVARVSRALNTLGLASMLYMLGVPVEYIEKAISLQFAGKEKVINMNVEAVRIAVDYVREAFGEPESRLPPGPRRGQTMMVATGNDLVAMGKIVGGLGVITYYPITPSSDEALYVEKHSYISIDGPLAEKLGYDKIAVAIVQMEDELASINAVLGAAAAGARASTTTSGPGFSLMNEAVSLAVEAEIPVVVTLWMRAGPSTGMPTRTGQQDLLHSIFSGHGDAPKIVLASGDHVEAFYDAIKAFNWAEEFQTPVIHLLDKYLASSMVSLAREDLDPSKVPITRGKLLDNPPADYRRYEVVEDGISPRARLGSATMVITGLEHDEYGYATEDPVMREIMMFKRERKFKVIEERIPDEEKAVLHGDSEASVALVSFGSTKQPILEALEMLRDEGVRARFAQVRLLYPFPGRLVEEMLEGVEKVIMVEQNLLGQLAMLLRAHTSIKPDSSIVKINGRPLYSFEVAGAVKRILETGEERVVVSHGS | failed
MKLKTRICKKNSIRNSEKVEESSKSTTNCPLSCVDWSSNEEIYFVSDDHQIFKWSDVSRDSVEVAKLPDDFVPTDMHWLLLGGRSSGGGKGSDTLLICSNDGRFVILNKSARVERSISAHAAAISSGRWSPDGAGLLTAGEDGVIKIWSRSGMLRSTVVQNEESIRCARWAPNSNSIVFCQGGHISIKPLAANSKIIRWRAHDGLVLSLSWSTQSNIIASGGEDFRFKIWDAQGANLFTSAAEEYAITSVAFNPEKDYLLWSYNTARFSSPRVGSIFNLSWSADGTQATCGTSTGQLIVAYAIEQQLVSGNLKATSKSRKSITLKDIATGTQDILDFPQRVVSFGLGYGHLVVATTNQVHIYNEKYINTPIIIDGRNDTRVIEVGKKYFMILDALSIWVYTYTGRLHLNPRYPGSQAQIPLLTWRSLSLGLDVLAIRDNSDPTVLHLFDLIPGASRQYDPHSLRAKQQLVQIAACRAGSPEDQFVAFIDSNRELFVSESRNLNSERIDEIYKIGTQLTAIMWASETNILVGVHDSCYSIWYCPGEGASDPTIIALTTITLDTTEFGKHITIESFEESVLTFRSAGALLPVNVNMYCEILHRALLEGQWQQALKICRMGQHSSLWATLAAVATRKHQLQISEEAYSAALQIDKVSYLQHLKALTPSSAEQMAENSLMLGRMLEAETILLHGKKIEQAVGLALRMHNWRRALEISQKHKGEQPELVPRVLQERRKYLKALQREEWDPLYLPLVAKEEADNTSE | failed
MNGFIPIIASIAISLPLLIFGSHSDVKKRSINSFTFLPIFILALAFYILDKDVVMSIVTILSTVAVFIKPNIYVYIVLPLIIIGIGFFDTINLLTILIVGMFLLTGFGELLFGIGDIKGIVSVVLLFSSIPRFNNYIPFSIVFVFFIAVASGGALLYFVVYARLNGLKLRGLNVLYDEHEYLRNTIKYQLKDTNSGKVMIYRVPFLVPILVSTVLSLIAQLIIYASIHT | failed
MGQAFAALSVWQVMGYGLVFFGGIYLLFGAATWLLTRRVLPALGVGRPLDPRPLGPGQWRREFLQSGLSVLIFGLGMVFPWGLVQLGWARLDDDAGPWRIVAEILVLVIWNDVHFWINHRLLHTRLLRRFHLPHHRSVVTTPFSTYSFHPIEALMLGNVILLPMVVHDFSFWSLLSVPLFSLFFNCVGHANYDFFPGVSYAHWFAASRRHHLHHACYQGNFGFQFTFMDRLFGTRLGADAAQGQLAAYRKRGAVGSAR | failed
MRDLVSCFSENSINVTHPLSISSSSSSCSKYSTNNVCISPSLIPSIQTSITSIYRITLSKHLIIKVTWCNPHNNNGLSISVASADQNPSTTLKLNTSSRFFRKKKGNKSVDSDLGKIEVFWDLSSAKYDSNLCGPEPINGFYVIVLVDGQMGLLLGDSSEETLRKKGFSGDIGFDFSLVSRQEHFTGNNTFYSTKVRFVETGDSHEIVIRCNKETEGLKQSNHYPVLSVCIDKKTVIKVKRLQWNFRGNQTIFLDGLLVDLMWDVHDWFFSNQGACGRAVFMFRTRNGLDSSRLWLEEKIVKKDQQDKLDFSLFIYACKT | failed
